Measured values reported in patent US20220280440A1, “METHOD FOR THE MANUFACTURE OF A DOSAGE FORM WITH MUCOADHESIVE PROPERTIES FOR BUCCAL ADMINISTRATION OF BIOLOGICS” (UNIVERSIDAD DE CHILE, priority 2016, published 2022).

Experiments:
[1] = FTIR of lysozyme inks with or without glycerol; type: physicochemical; settings: FIG. 13
Description: On the other hand, since these inks require the addition of glycerol as a viscosity agent, the evaluation of lysozyme inks was performed with or without glycerol by infrared spectroscopy Fourier transform (FTIR).

[2] = Effect of the inkjet printing process on nanosystems (properties before and after printing on inert substrate); type: physicochemical; settings: lysozyme in nanoparticles
Description: The process of printing on an inert substrate using a suspension with a nanosystem as carriers of biologic drug models was performed using polymeric nanoparticles. The suspension was incorporated into a cartridge for inkjet printing. The particle properties were measured before and after the printing process. […] Results are expressed as means (standard deviation). Except for an increase in the polydispersity index (PDI), the particles maintain their properties during the printing process and define the methodology for incorporating drug loaded nanoparticles on polymer films.
The obtained printing inks with lysozyme or insulin were loaded into Hewlett Packard cartridges compatible with Hewlett Packard Deskjet 1000 printer, and it was installed to run the printing experiments. Using a commercial software tool appropriate for the task, surfaces of 3×3 cm^2 were printed on an inert substrate to evaluate the effect of the printing process on the polymeric nanoparticles. After the printing process, the printed polymeric nanoparticles were recovered by refluxing with 1 mL of Milli-Q® water, and their physicochemical properties in terms of size, polydispersity index, and zeta potential were determined.

lysozyme
Major bands of the FTIR spectra, ink with or without glycerol [1]: does not change during the process
Amount immobilized at the particle and biologic structure during the printing process (load and protein activity studies) [2]: preserved during the printing process
